The data set addresses diketide-ACP4(Ø) (DEBS ACP4 without linker, loaded with diketide), Q03132.

Chain of diketide-ACP4(Ø) (DEBS ACP4 without linker, loaded with diketide), Q03132 (Q03132 other isoform, or with tags, fused parts or gaps): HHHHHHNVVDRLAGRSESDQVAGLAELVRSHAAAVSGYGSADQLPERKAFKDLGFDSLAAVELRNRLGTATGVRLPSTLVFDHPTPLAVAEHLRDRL

B1: (5)M2+TE (module 2 of DEBS with the N-terminal linker of module 5, fused to thioesterase) (protein)
chain: MSGDNGMTEEKLRRYLKRTVTELDSVTARLREVEHRAGIAIVGMACRLPGEVDSPERLWELITSGRDSAAEVPDDRGWVPDELMASDAAGTRAHGNFMAGAGDFDAAFFGISPREALAMDPQQRQALETTWEALESAGIPPETLRGSDTGVFVGMSHQGYATGRPRPEDGVDGYLLTGNTASVASGRIAYVLGLEGPALTVDTACSSSLVALHTACGSLRDGDCGLAVAGGVSVMAGPEVFTEFSRQGALSPDGRCKPFSDEADGFGLGEGSAFVVLQRLSDARREGRRVLGVVAGSAVNQDGASNGLSAPSGVAQQRVIRRAWARAGITGADVAVVEAHGTGTRLGDPVEASALLATYGKSRGSSGPVLLGSVKSNIGHAQAAAGVAGVIKVLLGLERGVVPPMLCRGERSGLIDWSSGEIELADGVREWSPAADGVRRAGVSAFGVSGTNAHVIIAEPPEPEPVPQPRRMLPATGVVPVVLSARTGAALRAQAGRLADHLAAHPGIAPADVSWTMARARQHFEERAAVLAADTAEAVHRLRAVADGAVVPGVVTGSASDGGSVFVFPGQGAQWEGMARELLPVPVFAESIAECDAVLSEVAGFSVSEVLEPRPDAPSLERVDVVQPVLFAVMVSLARLWRACGAVPSAVIGHSQGEIAAAVVAGALSLEDGMRVVARRSRAVRAVAGRGSMLSVRGGRSDVEKLLADDSWTGRLEVAAVNGPDAVVVAGDAQAAREFLEYCEGVGIRARAIPVDYASHTAHVEPVRDELVQALAGITPRRAEVPFFSTLTGDFLDGTELDAGYWYRNLRHPVEFHSAVQALTDQGYATFIEVSPHPVLASSVQETLDDAESDAAVLGTLERDAGDADRFLTALADAHTRGVAVDWEAVLGRAGLVDLPGYPFQGKRFWLLPDRTTPRDELDGWFYRVDWTEVPRSEPAALRGRWLVVVPEGHEEDGWTVEVRSALAEAGAEPEVTRGVGGLVGDCAGVVSLLALEGDGAVQTLVLVRELDAEGIDAPLWTVTFGAVDAGSPVARPDQAKLWGLGQVASLERGPRWTGLVDLPHMPDPELRGRLTAVLAGSEDQVAVRADAVRARRLSPAHVTATSEYAVPGGTILVTGGTAGLGAEVARWLAGRGAEHLALVSRRGPDTEGVGDLTAELTRLGARVSVHACDVSSREPVRELVHGLIEQGDVVRGVVHAAGLPQQVAINDMDEAAFDEVVAAKAGGAVHLDELCSDAELFLLFSSGAGVWGSARQGAYAAGNAFLDAFARHRRGRGLPATSVAWGLWAAGGMTGDEEAVSFLRERGVRAMPVPRALAALDRVLASGETAVVVTDVDWPAFAESYTAARPRPLLDRIVTTAPSERAGEPETESLRDRLAGLPRAERTAELVRLVRTSTATVLGHDDPKAVRATTPFKELGFDSLAAVRLRNLLNAATGLRLPSTLVFDHPNASAVAGFLDICCAGTAAISGPHEFTRLAGALRGIAPVRAVPQPGYEEGEPLPSSMAAVAAVQADAVIRTQGDKPFVVAGHSAGALMAYALATELLDRGHPPRGVVLIDVYPPGHQDAMNAWLEELTATLFDRETVRMDDTRLTALGAYDRLTGQWRPRETGLPTLLVSAGEPMGPWPDDSWKPTWPFEHDTVAVPGDHFTMVQEHADAIARHIDAWHHHHHH
B1: the “kcat/KM, fold decrease against diketide-ACP4(4) with the same module” value is “the kcat/KM values drop approximately 70-300 fold”.

(Values after patent US20060110789.)
